This sample holds only a part of the variants without activity.
Assays:
biotinyl-Met-oxazolone = assay: self-aminoacylation, catalytic enhancement (BMO) (fold over background); higher = more active; k-Seq, kA / k0A0; sequences stand for … in GGGAAUGGAUCCACAUCUACGAAUUC…UUCACUGCAGACUUGACGAAGCUG
Procedure, shortened: (§1)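 Mutagenized RNA pools (0.43 μM; 21-nt variable region) were treated with 2–1250 μM of each biotinyl-aminoacyl-oxazolone. Conditions were 50 μL HEPES/NaCl/KCl/MgCl2/CaCl2 buffer, 5% acetonitrile, pH 6.9–7.0, room temperature, 90 minutes. Catalytic enhancement, the median kA relative to the uncatalyzed rate, was derived from streptavidin capture, qPCR and Illumina sequencing.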

biotinyl-Val-oxazolone = assay: self-aminoacylation, catalytic enhancement (BVO) (fold over background); higher = more active; k-Seq, kA / k0A0; sequences stand for … in GGGAAUGGAUCCACAUCUACGAAUUC…UUCACUGCAGACUUGACGAAGCUG
Procedure, shortened: as §1

biotinyl-Ile-oxazolone = assay: self-aminoacylation, catalytic enhancement (BIO) (fold over background); higher = more active; k-Seq, kA / k0A0; sequences stand for … in GGGAAUGGAUCCACAUCUACGAAUUC…UUCACUGCAGACUUGACGAAGCUG
Procedure, shortened: as §1

biotinyl-Leu-oxazolone = assay: self-aminoacylation, catalytic enhancement (BLO) (fold over background); higher = more active; k-Seq, kA / k0A0; sequences stand for … in GGGAAUGGAUCCACAUCUACGAAUUC…UUCACUGCAGACUUGACGAAGCUG
Procedure, shortened: as §1

biotinyl-Trp-oxazolone = assay: self-aminoacylation, catalytic enhancement (BWO) (fold over background); higher = more active; k-Seq, kA / k0A0; sequences stand for … in GGGAAUGGAUCCACAUCUACGAAUUC…UUCACUGCAGACUUGACGAAGCUG
Procedure, shortened: as §1

biotinyl-Phe-oxazolone = assay: self-aminoacylation, catalytic enhancement (BFO) (fold over background); higher = more active; k-Seq, kA / k0A0; sequences stand for … in GGGAAUGGAUCCACAUCUACGAAUUC…UUCACUGCAGACUUGACGAAGCUG
Procedure, shortened: as §1

| Sequence | self-aminoacylation (biotinyl-Met-oxazolone) | self-aminoacylation (biotinyl-Val-oxazolone) | self-aminoacylation (biotinyl-Ile-oxazolone) | self-aminoacylation (biotinyl-Leu-oxazolone) | self-aminoacylation (biotinyl-Trp-oxazolone) | self-aminoacylation (biotinyl-Phe-oxazolone) |
| --- | --- | --- | --- | --- | --- | --- |
| CCACAGUUCAAGCUAUCGGUC [Fam1B.1 aminoacylation ribozyme variant] | 1.25 | 1.27 | 1.21 | 1.1 | 0.749 | 0.851 |
| CGACACUUCAAGUAAUCGGUC [Fam1B.1 aminoacylation ribozyme variant] | 1.5 | 1.47 | 1.69 | 1.16 | 2.28 | 3.36 |
| AAGUUUGUUAAUACUCGCAAG [Fam3.1 aminoacylation ribozyme variant] | 0.692 | 0.81 | 0.893 | 0.76 | 0.7 | 1.07 |
| AUUCAACUAGGUCAUCGGGUC [Fam2.2 aminoacylation ribozyme variant] | 1.14 | 0.979 | 1.02 | 1.15 | 1.22 | 1.77 |
| CUACUUCAAACAAUCCGUGUG [Fam1A.1 aminoacylation ribozyme variant] | 2.86 | 1.88 | 1.99 | 3.84 | 2.52 | 7.45 |
| AAGUUUGCUAAUAUUCGCAUG [Fam3.1 aminoacylation ribozyme variant] | 1.19 | 1.19 | 1.14 | 1.08 | 0.844 | 1.47 |
| CCACACUUCAAGCUAUCGGUG [Fam1B.1 aminoacylation ribozyme variant] | 5.19 | 3.77 | 3.88 | 6.48 | 5.5 | 33 |
| AUUACCCUGGUCAUCGAGGCA [Fam2.1 aminoacylation ribozyme variant] | 1.9 | 1.59 | 1.29 | 1.97 | 0.847 | 1.25 |
| AUUACCAUGGUCAUCGAGUGA [Fam2.1 aminoacylation ribozyme variant] | 8.61 | 4.75 | 4.49 | 9.28 | 10.7 | 12 |
| ACUCACCUAGGUUAUCGGGUG [Fam2.2 aminoacylation ribozyme variant] | 3.92 | 5.05 | 4.89 | 5.42 | 7.29 | 46 |
| AUGUUUGCUAAUAGUCGCAGG [Fam3.1 aminoacylation ribozyme variant] | 1.76 | 1.33 | 1.54 | 1.8 | 1.95 | 2.47 |
| CCAGACUUCAAGCCAUCGGUC [Fam1B.1 aminoacylation ribozyme variant] | 1.17 | 1.46 | 1.34 | 1.24 | 1.33 | 0.714 |
| AUUACCCUCGUCAUCGCGUGA [Fam2.1 aminoacylation ribozyme variant] | 6.01 | 4.02 | 3.63 | 6.51 | 6.81 | 51.9 |
| AUUCACCUCGGUCAUCGGAUG [Fam2.2 aminoacylation ribozyme variant] | 0.789 | 1 | 0.927 | 0.794 | 0.751 | 0.352 |
| CCACUUCAAACCAUCGGUCUG [Fam1A.1 aminoacylation ribozyme variant] | 0.947 | 1.29 | 1.31 | 1.24 | 1.16 | 1.49 |
| AAGUUUGCUAAUAGUCCCGAG [Fam3.1 aminoacylation ribozyme variant] | 1.28 | 1.27 | 1.22 | 1.31 | 2.65 | 1.54 |
| CUACUUCAAACAACCGGCCUG [Fam1A.1 aminoacylation ribozyme variant] | 2.4 | 1.86 | 1.8 | 1.51 | 1.49 | 2.27 |
| AUUCCUCUAGGUCAUCGGGUG [Fam2.2 aminoacylation ribozyme variant] | 16.6 | 10.5 | 10.4 | 23.7 | 16.1 | 154 |
| AUUACCCUGGUUAUCGAGGGA [Fam2.1 aminoacylation ribozyme variant] | 1.4 | 1.16 | 1.55 | 0.955 | 1.79 | 1.16 |
| UUACUUCAAACAAUCGGUUUG [Fam1A.1 aminoacylation ribozyme variant] | 1.48 | 1.24 | 1.59 | 1.86 | 20.3 | 31.5 |
| AAGUUUUCUAAUAGUCGCGAG [Fam3.1 aminoacylation ribozyme variant] | 1.84 | 1.71 | 2.02 | 1.88 | 2.99 | 5.94 |
| AUUACUCUGGUCAUCUAGUGA [Fam2.1 aminoacylation ribozyme variant] | 9.64 | 4.34 | 4.55 | 9.74 | 11.4 | 42.8 |
| AUUCACCUAGGUCAUCGCGCG [Fam2.2 aminoacylation ribozyme variant] | 5.13 | 5.13 | 5.42 | 7.72 | 3.32 | 22.4 |
